Laboratory results taken from publication doi:10.1101/2023.02.19.529138 (bioRxiv, 2023).

Columns and labels:
Experiment in all cases: single-molecule photobleaching step analysis
[1] = target: LeuT (Aquifex aeolicus)
[2] = target: T1, KcsA (Streptomyces lividans), P0A334; conditions: remark: other sources report otherwise
T1 chain: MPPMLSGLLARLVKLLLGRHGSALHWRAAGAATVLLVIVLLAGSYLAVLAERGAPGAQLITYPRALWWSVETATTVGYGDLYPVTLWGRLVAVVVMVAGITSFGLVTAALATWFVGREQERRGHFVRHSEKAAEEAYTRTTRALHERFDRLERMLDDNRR

[3] = target: the molecule itself

In the case of LeuT (natural protein), the percent dimer [1] is reported as 75% and the percent monomer [1] is reported as 14%.

B1: KcsA, P0A334 1-160 (natural protein)
chain: T1 chain
With B1 the stoichiometry N [2] was 4.

B2: SemiSWEET (natural protein)
chain: MALIERIGKALEPLMLVMGLISPLATMPQLYKLYVSHSEHALGLSLTTWLLYSFIALLWTIYGIYHKNPTIWVGNCLGFLMYVAMVVGIIAHTGGTY
In the case of B2, the “stoichiometry N” value [3] is reported as 2.
